Assays:
[1] = biological target: T1, ENTPD2 (Homo sapiens, UniProt Q9Y5L3); test: Hybridoma mAb screen: cell-based assay for inhibition of ATP hydrolysis by ENTPD2; settings: hybridoma-derived mAbs
T1 sequence (Q9Y5L3 1-495): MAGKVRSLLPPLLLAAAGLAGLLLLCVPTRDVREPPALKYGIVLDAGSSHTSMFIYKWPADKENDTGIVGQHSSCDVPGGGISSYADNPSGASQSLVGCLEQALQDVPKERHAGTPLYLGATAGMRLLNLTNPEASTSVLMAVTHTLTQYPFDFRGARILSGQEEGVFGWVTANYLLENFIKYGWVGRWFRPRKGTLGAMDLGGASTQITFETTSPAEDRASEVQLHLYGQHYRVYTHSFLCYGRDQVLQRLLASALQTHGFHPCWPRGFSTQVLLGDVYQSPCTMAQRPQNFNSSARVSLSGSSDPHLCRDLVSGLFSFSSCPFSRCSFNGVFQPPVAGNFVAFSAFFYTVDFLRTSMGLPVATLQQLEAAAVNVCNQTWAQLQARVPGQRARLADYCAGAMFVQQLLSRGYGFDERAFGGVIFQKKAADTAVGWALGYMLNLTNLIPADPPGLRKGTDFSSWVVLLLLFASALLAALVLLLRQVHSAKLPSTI
Source text: Hybridoma-derived mAbs were screened in a cell-based assay for inhibition of ATP hydrolysis by ENTPD2.

[2] = biological target: T2, recombinant human ENTPD2 (residues 29-462) (Homo sapiens, UniProt Q9Y5L3); test: Biochemical human ENTPD2 functional assay (Transcreener ADP2 TR-FRET); settings: FIG. 15
T2 construct: residues 29-462 of human or cyno ENTPD2 were cloned into expression vector; GP67 signal peptide (N); made in house; host or cells: High Five (Trichoplusia ni) insect cells, baculovirus
T2 sequence (Q9Y5L3 29-462): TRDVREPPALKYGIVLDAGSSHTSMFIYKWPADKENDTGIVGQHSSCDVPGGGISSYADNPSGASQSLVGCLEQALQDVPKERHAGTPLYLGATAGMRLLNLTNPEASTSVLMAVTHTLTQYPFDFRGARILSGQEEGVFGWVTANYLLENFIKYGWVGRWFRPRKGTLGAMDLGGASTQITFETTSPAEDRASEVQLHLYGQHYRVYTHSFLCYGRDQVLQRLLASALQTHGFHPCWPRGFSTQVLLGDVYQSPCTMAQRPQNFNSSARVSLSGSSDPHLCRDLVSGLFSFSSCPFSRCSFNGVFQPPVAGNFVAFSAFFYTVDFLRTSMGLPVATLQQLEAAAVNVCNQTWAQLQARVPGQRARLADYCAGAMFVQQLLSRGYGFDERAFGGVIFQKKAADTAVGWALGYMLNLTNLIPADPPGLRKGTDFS
Source text: (§1) Biochemical and cell-based functional assays were developed in-house to understand functional impact of anti-ENTPD2 Abs against purified extracellular domain of ENTPD2 (residues 29-462), as well as against the fully intact protein in the context of the native cell-based conformation. ENTPD2 hydrolyzes ATP to ADP, which can subsequently be detected using the HTRF Transcreener ADP2 TR-FRET Red Assay (BellBrook Labs, Madison, Wis.) where ENTPD2-produced ADP would compete with the ADP Tracer for binding to the anti-ADP-Tb antibody. The resulting signal is inversely proportional to the concentration of ADP in the sample.
To evaluate activity of anti-ENTPD2 Abs in the ENTPD2 biochemical assay, anti-ENTPD2 Abs and recombinant ENTPD2 (residues 29-462) were diluted in reaction buffer (50 mM HEPES, pH 7.1, 10 mM MgCl2, 0.01% BSA) to the desired concentration. 4 μL per well of the ENTPD2 solution and 2 μL per well of the Anti-ENTPD2 Ab solution were transferred into a ProxiPlate (PerkinElmer, Waltham, Mass.) and incubated for 30 min at room temperature. Reaction was then initiated via addition of 2 μl of ATP (final assay concentration of 1 μM), and the sample was incubated for 25 min at room temperature. […]
(§2) HTRF signal (Emission at 620 nm and 665 nm) was assessed in both assays using the Envision plate reader in HTRF mode (Perkin Elmer, Waltham, Mass.). HTRF ratio was determined using the following formula: HTRF ratio=R=Emission at 665 nm/Emission at 620 nm×10,000. Subsequently % Residual Activity and % Inhibition were determined as follows:
(§3) Where R0% is the HTRF ratio of the negative control (0% enzyme activity), and R100% is the HTRF ratio of the positive control (100% enzyme activity). Data were analyzed in Microsoft Excel and graphed using GraphPad's Prism 7.0 software and IC50 values were obtained using non-linear regression, log (agonist) vs. response-variable slope (four parameters) analysis.

[3] = biological target: T3, mouse ENTPD2 (Mus musculus, UniProt O55026); test: Mouse ENTPD2 NIH/3T3 cell-based functional assay; settings: mouse ENTPD2 NIH/3T3 cells, 100 nM
T3 construct: expressed in transfected cells; host or cells: NIH/3T3 (retroviral transduction)
T3 sequence (O55026 1-495): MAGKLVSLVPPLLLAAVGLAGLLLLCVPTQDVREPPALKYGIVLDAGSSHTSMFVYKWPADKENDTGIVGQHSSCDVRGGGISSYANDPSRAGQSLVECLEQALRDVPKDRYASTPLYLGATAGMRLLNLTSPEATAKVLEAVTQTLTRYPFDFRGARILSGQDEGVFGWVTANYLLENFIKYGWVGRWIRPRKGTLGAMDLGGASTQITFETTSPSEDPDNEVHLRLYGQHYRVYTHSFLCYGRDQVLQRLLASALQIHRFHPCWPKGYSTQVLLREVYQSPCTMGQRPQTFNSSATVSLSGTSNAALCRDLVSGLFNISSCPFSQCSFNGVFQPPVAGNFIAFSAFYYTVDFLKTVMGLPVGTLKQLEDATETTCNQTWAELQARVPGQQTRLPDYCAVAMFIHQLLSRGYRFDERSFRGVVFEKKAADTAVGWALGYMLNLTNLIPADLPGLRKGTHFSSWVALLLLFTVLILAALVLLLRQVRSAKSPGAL
Source text: as §1
To establish cell-based functional assays, human/cyno/mouse ENTPD2-engineered NIH/3T3 cells or RKO (ATCC, Manassa Va.) colorectal cancer cells with endogenous ENTPD2 expression were plated overnight at 150, 200 and 250 cells per well for NIH/3T3 mouse, cyno and human ENTPD2 lines, respectively, or 1000 cells per well for RKO in 384-well tissue culture plate, in 30 μl per well (Perkin Elmer, Waltham, Mass.). The following day cells were pre-incubated with Anti-ENTPD2 Abs in dose response for 60 min at 37° C., 5% CO2 (10 μl of 5× antibody dose per well), and subsequently stimulated with a final concentration of 10 μM ATP (Teknova, Hollister, Calif.) for 20 minutes at room temperature (10 μl of 5× (50 μM) ATP per well). Reactions were quenched with 40 mM EDTA/40 mM EGTA, 25 μl per well, and 15 μl of quenched media was transferred to low volume Proxiplates (PerkinElmer, Waltham, Mass.) for ADP detection. ADP production was detected with the Transcreener ADP2 TR-FRET Red Assay (BellBrook Labs, Madison, Wis.) with a final concentration of 4 nM ADP2 antibody and 13.4 nM of ADP Tracer in wells (4× solution was prepared and 5 μL of “Detection Reagent Mix” was added to the quenched conditioned media). Plates were incubated with detection reagents for 1 hour at room temperature prior to reading plates in HTRF mode.
as §2, §3
Anti-ENTPD2 mAb13 was identified as a mouse ENTPD2 selective Ab (FACS EC50 3-4 nM) with no binding to human or cyno ENTPD2.

B1: mAb16: hybridoma-derived lead inhibitory anti-human ENTPD2 mAb; VH/VL DNA SEQ ID NO: 226/230 (antibody, V domains shown)
VH: DIQLQESGPGLVKPSQSLSLTCSVTGYSITSGYYWNWIRQFPGNKLEWMGYISYDGDNNYNPSLKNRISITRDTSKNQFFLKLSSVTTEDTATYYCAGGYYRYGLSYYYVMDYWGQGTSVTVSS
VL: DTVLTQSPASLAVSLGQRATISCKASQSVDYDGNSYMNWYQQKPGQPPKLLIYAASNLESGIPARFSGSGSGTDFTLNIHPVEEEDAATYYCQQSNEDPPTFGGGTKLEIK
inhibition of ATP hydrolysis by ENTPD2 [1]: lead inhibitory mAbs

B2: mAb19: anti-human ENTPD2 antibody of Table 1; VH SEQ ID NO: 250, VL SEQ ID NO: 257 (antibody, V domains shown)
VH: EVQLQQFGAELVKPGTSVKISCKASGYTFTDYNMDWVKQSHGKSLEWIGDINPNYDITTYNQRFKGKATLTVDKSSSTAYMELRSLTSEDTAVYYCARRGFFPYYGNSYYYFDVWGAGTTVTVSS
VL: QIVLTQSPTIMSASLGEEITLTCSASSSVSYMHWYQQKSGTSPKLLIYSTSNLASGVPSRFSGSGSGTFYSLTISSVEAEDAADYYCHQWSNYPWTFGGGTKLEIK
inhibition of the catalytic activity of recombinant human ENTPD2 [2]: potently inhibit

B3: mAb21: anti-human ENTPD2 antibody of Table 1; VH SEQ ID NO: 281, VL SEQ ID NO: 287 (antibody, V domains shown)
VH: EVQLQQSGPELVKPGASVKISCKTSGYTFTEYTMHWVKQSHGKSLEWIGGINPNNGITTYNQKFKGKATLTVDKSSSTAYMDLRSLTSEGSAVYYCARRGFPIYYYGTSLYYFDYWGQGTTLTVSS
VL: QIVLTQSPAIMSASLGEEITLTCSASSSVSYMHWYQQRSGTSPKLLIYTTSNLASGVPSRFSGSGSGTFYSLTISSVEAEDAADYYCHQWSSYPWTFGGGTKLEIK
inhibition of the catalytic activity of recombinant human ENTPD2 [2]: potently inhibit

B4: mAb14: anti-mouse ENTPD2 antibody, T30 variant of mAb13; HC SEQ ID NO: 211, LC SEQ ID NO: 204 (antibody)
heavy: QVQLVQSGAELKQPGQSVKISCKASGYTFWHYGMNWVKQAPGQGLKWMGWINTDTGNPTYADDFKGRFVFSLDTSVSTAYLQISNLKNEDTATYYCVRYGTLYSGYGFFFDSWGQGTLVTVSSAKTTAPSVYPLAPVCGDTTGSSVTLGCLVKGYFPEPVTLTWNSGSLSSGVHTFPAVLQSDLYTLSSSVTVTSSTWPSQSITCNVAHPASSTKVDKKIEPRGPTIKPCPPCKCPAPNLLGGPSVFIFPPKIKDVLMISLSPIVTCVVVDVSEDDPDVQISWFVNNVEVHTAQTQTHREDYNSTLRVVSALPIQHQDWMSGKEFKCKVNNKDLPAPIERTISKPKGSVRAPQVYVLPPPEEEMTKKQVTLTCMVTDFMPEDIYVEWTNNGKTELNYKNTEPVLDSDGSYFMYSKLRVEKKNWVERNSYSCSVVHEGLHNHHTTKSFSRTPGK
light: DIMMTQSPSSLSVSAGEKATITCKSSQSLFNSNTNKNYLNWYLQKPGQSPKLLFYYASTRHTGVPDRFIGSGSGTDFTLTITSVQDEDLADYYCQQWYSYPWTFGPGTKLEIKRADAAPTVSIFPPSSEQLTSGGASVVCFLNNFYPKDINVKWKIDGSERQNGVLNSWTDQDSKDSTYSMSSTLTLTKDEYERHNSYTCEATHKTSTSPIVKSFNRNEC
% Inhibition at 100 nM (±Std Err) [3]: 79 ± 2.2%

B5: mAb15: anti-mouse ENTPD2 antibody, T30 variant of mAb13; HC SEQ ID NO: 218, LC SEQ ID NO: 204 (antibody)
heavy: QVQLVQSGAELKQPGQSVKISCKASGYTFHHYGMNWVKQAPGQGLKWMGWINTDTGNPTYADDFKGRFVFSLDTSVSTAYLQISNLKNEDTATYYCVRYGTLYSGYGFFFDSWGQGTLVTVSSAKTTAPSVYPLAPVCGDTTGSSVTLGCLVKGYFPEPVTLTWNSGSLSSGVHTFPAVLQSDLYTLSSSVTVTSSTWPSQSITCNVAHPASSTKVDKKIEPRGPTIKPCPPCKCPAPNLLGGPSVFIFPPKIKDVLMISLSPIVTCVVVDVSEDDPDVQISWFVNNVEVHTAQTQTHREDYNSTLRVVSALPIQHQDWMSGKEFKCKVNNKDLPAPIERTISKPKGSVRAPQVYVLPPPEEEMTKKQVTLTCMVTDFMPEDIYVEWTNNGKTELNYKNTEPVLDSDGSYFMYSKLRVEKKNWVERNSYSCSVVHEGLHNHHTTKSFSRTPGK
light: DIMMTQSPSSLSVSAGEKATITCKSSQSLFNSNTNKNYLNWYLQKPGQSPKLLFYYASTRHTGVPDRFIGSGSGTDFTLTITSVQDEDLADYYCQQWYSYPWTFGPGTKLEIKRADAAPTVSIFPPSSEQLTSGGASVVCFLNNFYPKDINVKWKIDGSERQNGVLNSWTDQDSKDSTYSMSSTLTLTKDEYERHNSYTCEATHKTSTSPIVKSFNRNEC
% Inhibition at 100 nM (±Std Err) [3]: 76 ± 3.4%

Source: patent US20220348651A1, “ENTPD2 ANTIBODIES, COMBINATION THERAPIES, AND METHODS OF USING THE ANTIBODIES AND COMBINATION THERAPIES” (Novartis AG, priority 2019, published 2022)
